Data as given in PMC11905138.

Experiments:
Settings in all cases: reference: Flag-PKM2 wild type; sites Y105
IQGAP1 [1] = molecular target: IQGAP1 (UniProt P46940); assay: anti-Flag IP, LC-MS/MS
TSG101 = TSG101 (UniProt Q99816); assay: anti-Flag co-IP, TSG101 blot
IQGAP1 [2] = molecular target: IQGAP1 (UniProt P46940); assay: anti-Flag co-IP, IQGAP1 blot

Measured: binding against the reference

PKM2 (pyruvate kinase M2) (from UniProt P14618) Flag-PKM2 Y105F
lost: IQGAP1 [1] | TSG101 | IQGAP1 [2]
